doi:10.1101/2022.03.03.481873v1
Positions count from the first letter of the chain named. Names and notes keep the numbering of the source.

B1: EfNSAR/OSBS (Enterococcus faecalis V583) (protein)
chain: MNIQSIETYQVRLPLKTPFVTSYGRLEEKAFDLFVITDEQGNQGFGELVAFEQPDYVQETLVTERFIIQQHLIPLLLTEAIEQPQEVSTIFEEVKGHWMGKAALETAIWDLYAKRQQKSLTEFFGPTRRKIPVGISLGIQEDLPQLLKQVQLAVEKGYQRVKLKIRPGYDVEPVALIRQHFPNLPLMVDANSAYTLADLPQLQRLDHYQLAMIEQPFAADDFLDHAQLQRELKTRICLDENIRSLKDCQVALALGSCRSINLKIPRVGGIHEALKIAAFCQENDLLVWLGGMFESGVGRALNLQFASQPTFSFPGDISATERYFYEDIITEPFILEQGTMTVPQGLGIGVTLSQTNLLKYSQYQKIM
B2: EcDE (Escherichia coli K-12) (protein)
chain: MRTVKVFEEAWPLHTPFVIARGSRSEARVVVVELEEEGIKGTGECTPYPRYGESDASVMAQIMSVVPQLEKGLTREELQKILPAGAARNALDCALWDLAARRQQQSLADLIGITLPETVITAQTVVIGTPDQMANSASTLWQAGAKLLKVKLDNHLISERMVAIRTAVPDATLIVDANESWRAEGLAARCQLLADLGVAMLEQPLPAQDDAALENFIHPLPICADESCHTRSNLKALKGRYEMVNIKLDKTGGLTEALALATEARAQGFSLMLGCMLCTSRAISAALPLVPQVSFADLDGPTWLAVDVEPALQFTTGELHL
B3: RcNSAR/OSBS (Roseiflexus castenholzii DSM 13941) (protein)
chain: MKIESITLHHIDMPLVAPFETSFGRETHRPCILIEMRADGLTGWGECVAGAGPWYAYETIGTAWHIISDFLAPMIVGQEITEPIGIVERFASVRGHPMARAAVEAAFWDLYAQARGVSLARLIGATRDRVTVGVSVGIELTLEAQLASIERFVAAGYARIKLKIKPGWDVAVVRAVRERWPDIALQVDANSAYTPDDAPIFRELDEMNLLLIEQPLHHDDIVDHARLQAQISTPICLDESIHSPEHARWALDIDACRVINIKIGRVGGLTAARQIHDLCAERGVPVWCGGMLETNVGRAVNLALAALPNFALPGDISASARYYHRDIAAPDFVLNDDSTITVPDTPGTGVAVLPERLRDVQVREVIIGKG
B4: BsDE (Bacillus subtilis subsp. subtilis str. 168; K271Q) (protein)
chain: MKIIRIETSRIAVPLTKPFKTALRTVYTAESVIVRITYDSGAVGWGEAPPTLVITGDSMDSIESAIHHVLKPALLGKSLAGYEAILHDIQHLLTGNMSAKAAVEMALYDGWAQMCGLPLYQMLGGYRDTLETDYTVSVNSPEEMAADAENYLKQGFQTLKIKVGKDDIATDIARIQEIRKRVGSAVKLRLDANQGWRPKEAVTAIRKMEDAGLGIELVEQPVHKDDLAGLKKVTDATDTPIMADESVFTPRQAFEVLQTRSADLINIKLMQAGGISGAEKINAMAEACGVECMVGSMIETKLGITAAAHFAASKRNITRFDFDAPLMLKTDVFNGGITYSGSTISMPGKPGLGIIGAALLKGEKEQ
B5: BsDE (Bacillus subtilis subsp. subtilis str. 168) (protein)
chain: B4 chain with Q271K
B6: LiNSAR/OSBS (Listeria innocua Clip11262) (protein)
chain: MYFQKARLIHAELPLLAPFKTSYGELKSKDFYIIELINEEGIHGYGELEAFPLPDYTEETLSSAILIIKEQLLPLLAQRKIRKPEEIQELFSWIQGNEMAKAAVELAVWDAFAKMEKRSLAKMIGATKESIKVGVSIGLQQNVETLLQLVNQYVDQGYERVKLKIAPNKDIQFVEAVRKSFPKLSLMADANSAYNREDFLLLKELDQYDLEMIEQPFGTKDFVDHAWLQKQLKTRICLDENIRSVKDVEQAHSIGSCRAINLKLARVGGMSSALKIAEYCALNEILVWCGGMLEAGVGRAHNIALAARNEFVFPGDISASNRFFAEDIVTPAFELNQGRLKVPTNEGIGVTLDLKVLKKYTKSTEEILLNKGWS

Legend:
Test in all cases: purified protein
[1] = tested on: O=C(O)CCC(=O)C1=CC=C[C@@H](O)[C@@H]1C(=O)O; settings: 50 mM Tris pH 8.0, 0.1 mM MnCl2, 25 °C, Amycolatopsis numbering
[2] = substrate: O=C(O)CCC(=O)C1=CC=C[C@@H](O)[C@@H]1C(=O)O; settings: 50 mM Tris pH 8.0, 0.1 mM MnCl2, 25 °C
[3] = substrate: O=C(O)CCC(=O)N[C@@H](C(=O)O)c1ccccc1; settings: 200 mM Tris pH 8.0, 0.1 mM MnCl2, 25 °C
[4] = substrate: C[C@H](N)C(=O)N[C@@H](CCC(=O)O)C(=O)O; assay type: biochemical, Escherichia coli; settings: 50 mM Tris pH 8.0, 10 mM MgCl2, 25 °C
[5] = substrate: C[C@H](N)C(=O)N[C@@H](CCC(=O)O)C(=O)O; assay type: biochemical, Bacillus subtilis; settings: 50 mM Tris pH 8.0, 10 mM MgCl2, 25 °C

Molecule | Km [2] [µM] | kcat [2] [s⁻¹] | Km [3] [µM] | kcat [3] [s⁻¹] | further results
LiNSAR/OSBS (Listeria innocua Clip11262; R266Q) | – | – | – | – | Km [1]: 163 ± 15 µM; kcat [1]: 0.57 ± 0.02 s⁻¹
B1 | 17 ± 3 | 160 ± 7 | 1500 ± 150 | 34 ± 1 | –
B2 | – | – | – | – | Km [4]: 340 ± 60 µM; kcat [4]: 11.4 ± 0.7 s⁻¹
B3 | 116 ± 15 | 54.6 ± 2 | 900 ± 100 | 12.7 ± 0.4 | –
B4 | – | – | – | – | Km [5]: 508 ± 165 µM; kcat [5]: 0.23 ± 0.03 s⁻¹
B5 | – | – | – | – | Km [5]: 452 ± 120 µM; kcat [5]: 21.4 ± 2 s⁻¹
B6 | 155 ± 16 | 216 ± 7 | 1000 ± 270 | 3.74 ± 0.5 | –
